Results taken from the nanobody polyreactivity screen of Harvey et al. (2022).

Assay: yeast display, Sf9 membrane polyspecificity reagent, FACS + sequencing; frameworks hold sequencing errors
Summary of the method: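 Galactose-induced (36–48 hours) yeast carrying a synthetic nanobody display library were exposed to 10% biotinylated, detergent-solubilized Sf9 membrane reagent at 4 °C for 1 hour. FACS followed streptavidin microbead enrichment, using low and high (top ~1%) gates for expression (anti-HA) and reagent binding (streptavidin). Colony PCR, MiSeq 2 × 250 sequencing and CDR-length filtering followed. Labels for polyreactivity reflect the gate of origin.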

Row | Sequence | polyreactivity (PSR sort gate)
1 | QVQLVESGGGLVQAGGSLRLSCAASGSTFGYNAMGCYRQAPGKERELVAAISRSGGRTYYADSVKGRFTISRDNAKNTVYLQMNSLIPEDTAVYYCATYYTNKVPARYYWGQGTQVTVSS | high polyreactivity
2 | QVQLVESGGGLVQAGGSLRLSCAASGSTFGYNAMGGYRQAPGKERELVAAITWTGASTYYADSVKGRFTISRDNAKNTVYLQMNSLKPEDTAVYYCNLVGYQSMNYWGQGTQVTVSS | low polyreactivity
3 | QVQLVESGGGLVQAGGSLRLSCAASGSTFGYNAMGWYRQAPGKERELVAAISRSGGRTYYADSVKGRFTISRDNAKNTVYLQMNSLKPEDTAVYFCATYYTNKVPARYYWGQGTQVTVSS | high polyreactivity
4 | QVQLVESGGGLVQAGGSLRLSCAASGSTFGYNTMGWYRQAPGKERELVASITGRGGSTYYADSVKGRFTSSRDNAKNTVYLQMNSLKPEDTAVYYCAAAWKAYRRYGYWGQGTQVTVSS | high polyreactivity
5 | QVQLVESGGGLVQAGGSLRLSCAASGSTFGYYAMGWYRHAHGKERELVAAITGSVDSTYYADSVKGRFTISRDNAKNTVYLQMNSLKPEDTAVYYCAADTYSTYWGQGTQVTVSS | low polyreactivity
6 | QVQLVESGGGLVQAGGSLRLSCAASGSTFGYYAMGWYRHAPGKERELVAAISWRGGSTYYADSVKGRYTISRDNAKNTVYLQMISLKPEDTAVYYCAAPVGNYGSFDYWGQGTQVTVSS | low polyreactivity
7 | QVQLVESGGGLVQAGGSLRLSCAASGSTFGYYAMGWYRQAHGKERELVAAITSGGSTNYADSVKGRFTISRDNAKNTVYLQMNSLKPEDTAVYYCAAADSYRYHLRRYNYWGQGTQVTVSS | low polyreactivity
8 | QVQLVESGGGLVQAGGSLRLSCAASGSTFGYYAMGWYRQAPGKERELVAAISYRSGSTYYADSVNGRFTISRDNAKNTVYLQMNSLKPEDTAVYYCAPVIQRQQRYEYWGQGTQVTVSS | high polyreactivity
9 | QVQLVESGGGLVQAGGSLRLSCAASGSTFGYYAMGWYRQAPGKERELVAAITGSGGCTYYADSVKGRFTISRDNAKNTVYLQMNSLKPEDTAVYYCATPTKFVRDDYWGQGTQVTVSS | low polyreactivity
10 | QVQLVESGGGLVQAGGSLRLSCAASGSTFGYYAMGWYRQAPGKERELVAAITRGASTYYADSVNGRFTISRDNAKNTVYLQMNSLKPDDTAVYYCAFDTWKVQGASSRYRKMYYWGQGTQVTVSS | low polyreactivity
11 | QVQLVESGGGLVQAGGSLRLSCAASGSTFGYYAMGWYRQAPGKERELVASITWGGGSTYYADSVKGRFTISRDNAKNTVYLQMNSLNPEDTAVYYCAATILGGTWGYGSYTYYYWGQGTQVTVSS | low polyreactivity
12 | QVQLVESGGGLVQAGGSLRLSCAASGSTFGYYAMGWYRQAPGKERELVATMSATGGSTYYADSVKGRFTISRDKAKNTVYLQMNSLKPEDTAVYYCNAEYDRGNEYDYWGQGTQVTVSS | low polyreactivity
13 | QVQLVESGGGLVQAGGSLRLSCAASGSTFGYYAMGWYRQAPGKERELVAVITRGGSTYYADSVKGRFTISRDNAKNTVYLQLNSLKPEDTAVYYCNARVQAVHYGYWGQGTQVTVSS | high polyreactivity
14 | QVQLVESGGGLVQAGGSLRLSCAASGSTFGYYAMGWYRQAPGKEREVVAALDSSGDTYYADSVKGRFTISRDNAKNTVYFQMNSLKPEDTAVYYCAADFWVSSYWGYGYWGQGTQVTVSS | high polyreactivity
15 | QVQLVESGGGLVQAGGSLRLSCAASGSTFGYYAMGWYRQAPGKESELVATINWSGGSTYYADSVKGRFTISRDNAKNTVYLQMNSLKPEDTAVYYCAADPYLQYYWAYDYWGQGTQVTVSS | low polyreactivity
16 | QVQLVESGGGLVQAGGSLRLSCAASGSTFGYYAMGWYRQATGKERELVAAISSGGSTSYADSVKGRFTISRDNAKNTVYLQMNSLKPEDTAVYYCNTSYRKKKRYYYWGQGTQVTVSS | high polyreactivity
17 | QVQLVESGGGLVQAGGSLRLSCAASGSTFGYYAMGWYRQEPGKERELVAAISRGSSTYYADSVKGRFTISRDNAKNTVYLQMNSLKPEDTAVYYCAAKRYAYGSLDYWGQGTQVTVSS | high polyreactivity
18 | QVQLVESGGGLVQAGGSLRLSCAASGSTFGYYAMRWYRQAPGKERELVAAIRSSGGGTYYADSVKGRFTISRDNAKNTVYLQMNSLKPEDTAVYYCATDAPILVNAEYDEWLEYDYWGQGTQVTVSS | low polyreactivity
19 | QVQLVESGGGLVQAGGSLRLSCAASGSTFGYYGMGWYRQAPGKERELVASIDSRGDSTYADSVKGRFTISRDNAKNTVYLQMNSLKPEDTAVYYCAADSWYSWFDSWGQGTQVTVSS | low polyreactivity
20 | QVQLVESGGGLVQAGGSLRLSCAASGSTFGYYTMGWYREAPGKERELVAAISWSGGSTYYADSVKGRFTISRDNAKNTVYLQMNSLKPEDTAVYYCAALGYTYKYYSYYWGQGTQVTVSS | high polyreactivity
21 | QVQLVESGGGLVQAGGSLRLSCAASGSTFGYYTMGWYRQAPGKERELVAALTWSGGSTYYADSVKGRFTISRDNAKNTVYLQMNSLKPEDTAVYYCAADDYWTPFGYWGQGSQVTVSS | low polyreactivity
22 | QVQLVESGGGLVQAGGSLRLSCAASGSTFGYYTMGWYRQAPGKERELVASISWSGASTHYADSVKGRFTISRDNAKNTVYLPMNRLKPEDTAVYYCAADSYPAYLGFVGFDYWGQGTQVTVSS | low polyreactivity

Row | Sequence | polyreactivity (PSR sort gate)
23 | QVQLVESGGGLVQAGGSLRLSCAASGSTFGYYTMGWYRQEPVKETELVAAISYSGGRTFYADSVKGRFTISRDNAKNSVYLQMKSLKTEDTEVYYCNKRYIPSYLSHLDYWGQGTQVTVSS | high polyreactivity
24 | QVQLVESGGGLVQAGGSLRLSCAASGSTFHKYTMGWYRQAPGKEREFVAAITRNGGTTSYADSVKGRFTISRDNAKNTVYLQMNSLKPEDTAVYYCAVKWRRQINYDYWGQGTQVTVSS | high polyreactivity
25 | QVQLVESGGGLVQAGGSLRLSCAASGSTFHLNAMGWYIQAPGKERELVAAISLSGGSTYYADSVKGRFTISRDHAKNTVYLQMNSLKPEYTAVYYCAAEQWYDNYLEYDYWGQGTEVTVSS | high polyreactivity
26 | QVQLVESGGGLVQAGGSLRLSCAASGSTFHLNAMGWYRQAPGKERELVAAISWDGSSTSYADSVKGRFTISRDNAKNTVYLQMNSLKPEDTAVYYCAKRSSGVSVPVAYGGIKRYNSWGQGTQVTVSS | low polyreactivity
27 | QVQLVESGGGLVQAGGSLRLSCAASGSTFHNYAMGWYRQAPGKERELVAGISVRGGGTYYADSVKGRFTISRDNAKNNVYLQMNSLKPEDTAVYYCAKRSRYYYRYDYWGQGSQVTVSS | high polyreactivity
28 | QVQLVESGGGLVQAGGSLRLSCAASGSTFHPYAMGWYIQAPGKERELVAAITWRVGSTYYADSVKGRFTISRDNAKNTVYLQMNSLKPEDTAVFYCAVSYLSSLGRSRYDYWGQGTQVTVSS | low polyreactivity
29 | QVQLVESGGGLVQAGGSLRLSCAASGSTFHRNAMGWYRQAPGKERELVAAITSGGSTNYADSEKGRFTISRDNAKNTVYLQMNRLKPEDTPVYYCAKDDRHYNRGWYDYWGQGTQVTVSS | low polyreactivity
30 | QVQLVESGGGLVQAGGSLRLSCAASGSTFHSNAMGWYRQAPGKERELVAAISQGGGRTYYADSVKGRFTISRDNAKNTVYLQMNSLKPEDTAVYYCNRRTRGLIDGGMDYWGQGTQVTVSS | low polyreactivity
31 | QVQLVESGGGLVQAGGSLRLSCAASGSTFHTNSMGGYRQAPGKETELVAAIRSGGGTNYADSVKGRFTISRDNAKNTVYLQMNSLKPEDTAVYYCNASPLPYSHRGDYWGQGTQVTVSS | low polyreactivity
32 | QVQLVESGGGLVQAGGSLRLSCAASGSTFHVNAMGWYRQAPGKEREFGAVISSSAGRTYYADSVKGRFTISRDNAKNTVYLQMNSLKPEDTAVYYCAAGTFKPYWRKFEYWGQGTQVTVSS | high polyreactivity
33 | QVQLVESGGGLVQAGGSLRLSCAASGSTFHYYAMGWYRQAPGKERELVAAIRTSGGSTYYADSVKGRFTISRDNAKNTVYLQMNSLKPEDTAVYYCNRVLGYPYGVDYWGQGTQVTVSS | high polyreactivity
34 | QVQLVESGGGLVQAGGSLRLSCAASGSTFHYYAMGWYRQAPGKERELVAAISGSGSSTYYADSVKGRFTISRDNAKNTVYLQMNRLKPEDTAVYYCNARGHYPRARFGYKSGSDRYWGQGTQVTVSS | high polyreactivity
35 | QVQLVESGGGLVQAGGSLRLSCAASGSTFHYYAMGWYRQAPGKERELVAAISKRGTSTYYADSVKGRFTISRDNAKNTVYLQMNSLKPEDTSVYYCNRYPIRYKHRGLDYWGHGTQVTVSS | high polyreactivity
36 | QVQLVESGGGLVQAGGSLRLSCAASGSTFHYYAMGWYRQAPGKERELVATITWRGGFTYYADSVKGRFTISRDNAKNTVYLQMNSLKPEDTAGYYCTDYSVRRYRDPRLYYWGQGTQVTVSS | high polyreactivity
37 | QVQLVESGGGLVQAGGSLRLSCAASGSTFHYYARGWYRQAPGKERELVAAISQSGSGTYYADSVKGRFTISRDYAKNTVYLQMNSLKPEDTAVYYCAKDITGLSRYRRDYWGQGTQVTVSS | low polyreactivity
38 | QVQLVESGGGLVQAGGSLRLSCAASGSTFIFNAMGWYRQAPGKERELVAGISSGSPYYADSVKGRFTISRDNAKNTVYLQMNSLIPEDTAVYYCATKLRRWRFYAAYDYWGQGTQVTVSS | high polyreactivity
39 | QVQLVESGGGLVQAGGSLRLSCAASGSTFIFYTMGWYRQAPGKERELVAAITSNGGSTYYADSVKGRFTISRDNAKNTVYFQMNSLKPEDTAVYYCARVDRWRRYRYIFSGYDYWGQGTQVTVSS | high polyreactivity
40 | QVQLVESGGGLVQAGGSLRLSCAASGSTFIIYAMGWYRQAPGKERELVAAISWSGGSTYYADSVKGRFTISRDNAKNTVYLQMNSLKPEDTAVYYCAVVYRTRWSDYDYWGQGTQVTVSS | high polyreactivity
41 | QVQLVESGGGLVQAGGSLRLSCAASGSTFIKYTMGWYRQAPGKERELVAAISVRGGSTTYADSVKGRFTISRDNAKNTVYLQRNSLKPEDTAVYYCAKDHYYAGTWRYGYWGQGTQVTVSS | high polyreactivity
42 | QVQLVESGGGLVQAGGSLRLSCAASGSTFILYAMGCYIQAPGKERELVAAITASGGSTYADSVKGRFTISRDNSKNTVYLQMNSLKPEDSAVYYCAARRWSSKYRKYDYWGQGTQVTVSS | high polyreactivity
43 | QVQLVESGGGLVQAGGSLRLSCAASGSTFIPYTMGWYRQAPGKERELVAAISGRGGRTYYADSVKGRFTISRDNAKNTVYLQMNSLKPEDTAVYYCNRVLRYGPSAQYDYWGQGTQVTVSS | high polyreactivity
